Patent US20240082183

Experiments:
[1] = molecular target: SDHA (endogenous, in mitochondria isolated from mouse IECs and in C57BL/6 primary colonic epithelial cells), Q8K2B3
[2] = molecular target: mutated SDHA protein with His Tag (mouse; Ile-Glu-Asp-Gly changed to Ile-Glu-Ala-Gly at the putative GzmB cleavage site), Q8K2B3
Sequence of mutated SDHA protein with His Tag (mouse; Ile-Glu-Asp-Gly changed to Ile-Glu-Ala-Gly at the putative GzmB cleavage site), Q8K2B3 (Q8K2B3 whole entry, looked up, change not shown): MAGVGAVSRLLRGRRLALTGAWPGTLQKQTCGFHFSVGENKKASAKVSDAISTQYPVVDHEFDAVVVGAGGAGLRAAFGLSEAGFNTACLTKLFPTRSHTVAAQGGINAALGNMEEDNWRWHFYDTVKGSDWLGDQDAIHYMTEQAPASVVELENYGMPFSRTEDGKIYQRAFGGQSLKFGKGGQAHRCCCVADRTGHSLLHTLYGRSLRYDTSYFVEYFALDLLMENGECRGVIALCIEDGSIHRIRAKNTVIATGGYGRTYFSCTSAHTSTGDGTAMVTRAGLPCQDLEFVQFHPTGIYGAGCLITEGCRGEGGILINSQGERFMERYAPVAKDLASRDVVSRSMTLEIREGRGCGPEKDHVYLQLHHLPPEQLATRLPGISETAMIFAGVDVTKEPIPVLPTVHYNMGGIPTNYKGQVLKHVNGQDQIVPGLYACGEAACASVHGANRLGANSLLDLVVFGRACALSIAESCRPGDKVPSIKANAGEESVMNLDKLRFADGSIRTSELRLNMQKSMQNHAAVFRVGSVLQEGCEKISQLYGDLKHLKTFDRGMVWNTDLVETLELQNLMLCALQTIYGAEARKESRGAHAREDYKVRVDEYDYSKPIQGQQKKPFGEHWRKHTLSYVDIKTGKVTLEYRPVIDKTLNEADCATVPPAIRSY

Sequence of SDHA (endogenous, in mitochondria isolated from mouse IECs and in C57BL/6 primary colonic epithelial cells), Q8K2B3 (Q8K2B3 43-664): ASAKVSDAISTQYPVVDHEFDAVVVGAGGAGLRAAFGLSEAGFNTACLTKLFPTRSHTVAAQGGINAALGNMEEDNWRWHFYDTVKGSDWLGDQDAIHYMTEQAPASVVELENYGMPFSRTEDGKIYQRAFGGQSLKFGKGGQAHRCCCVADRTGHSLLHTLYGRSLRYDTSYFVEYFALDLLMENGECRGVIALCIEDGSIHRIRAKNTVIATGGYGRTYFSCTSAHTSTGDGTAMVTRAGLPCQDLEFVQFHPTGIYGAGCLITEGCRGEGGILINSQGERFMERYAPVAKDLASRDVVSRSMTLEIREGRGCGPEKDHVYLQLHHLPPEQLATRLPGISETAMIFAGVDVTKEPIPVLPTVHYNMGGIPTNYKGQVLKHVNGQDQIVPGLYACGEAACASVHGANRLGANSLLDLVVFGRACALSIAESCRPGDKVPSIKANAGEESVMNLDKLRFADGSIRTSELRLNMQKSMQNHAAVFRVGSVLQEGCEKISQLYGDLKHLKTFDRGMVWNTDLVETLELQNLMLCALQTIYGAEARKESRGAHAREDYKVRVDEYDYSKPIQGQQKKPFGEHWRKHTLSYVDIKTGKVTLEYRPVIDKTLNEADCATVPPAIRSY

B1: recombinant mouse Granzyme B (protein)
chain: IIGGHEVKPHSRPYMALLSIKDQQPEAICGGFLIREDFVLTAAHCEGSIINVTLGAHNIKEQEKTQQVIPMVKCIPHPDYNPKTFSNDIMLLKLKSKAKRTRAVRPLNLPRRNVNVKPGDVCYVAGWGRMAPMGKYSNTLQEVELTVQKDRECESYFKNRYNKTNQICAGDPKTKRASFRGDSGGPLVCKKVAAGIVSYGYKDGSPPRAFTKVSSFLSWIKKTMKSS
- proteolysis of SDHA in isolated IEC mitochondria (immunoblot of full length and cleaved SDHA) [1]: Treatment with GzmB caused proteolysis of SDHA with a reduction in SDHA with an increase in SDHA cleaved fragments
- proteolysis of SDHA by GzmB in PCECs treated with perforin, Granzyme B and Serpin 3A for 6 hours (immunoblot of SDHA) (Serpin 3A): The presence of Serpin 3A prevented the proteolysis of SDHA by GzmB
- proteolysis of mutated SDHA protein (anti-His immunoblot, 6 hours) [2]: the mutation of the cleavage site prevented proteolysis of SDHA by GzmB
